Reference: patent US9815881B2, “Method of inducing labor or treating pre-eclampsia by administering relaxin analogs” (The Board of Trustees of the Leland Stanford Junior …, priority 2009, dated 2017)
Where no end group is shown, it is not given here.

Legend:
LGR7 [1] = target: T1, LGR7 (Homo sapiens, UniProt Q9HBX9); assay: Receptor-binding assay: competition for 125I-labeled RLN2 binding to LGR7-expressing HEK293T cells; conditions: competition for labeled RLN2 binding to LGR7
T1 construct: HEK293T cells stably expressing recombinant LGR7 or LGR8; expressed in transfected cells
T1 sequence (Q9HBX9 1-757): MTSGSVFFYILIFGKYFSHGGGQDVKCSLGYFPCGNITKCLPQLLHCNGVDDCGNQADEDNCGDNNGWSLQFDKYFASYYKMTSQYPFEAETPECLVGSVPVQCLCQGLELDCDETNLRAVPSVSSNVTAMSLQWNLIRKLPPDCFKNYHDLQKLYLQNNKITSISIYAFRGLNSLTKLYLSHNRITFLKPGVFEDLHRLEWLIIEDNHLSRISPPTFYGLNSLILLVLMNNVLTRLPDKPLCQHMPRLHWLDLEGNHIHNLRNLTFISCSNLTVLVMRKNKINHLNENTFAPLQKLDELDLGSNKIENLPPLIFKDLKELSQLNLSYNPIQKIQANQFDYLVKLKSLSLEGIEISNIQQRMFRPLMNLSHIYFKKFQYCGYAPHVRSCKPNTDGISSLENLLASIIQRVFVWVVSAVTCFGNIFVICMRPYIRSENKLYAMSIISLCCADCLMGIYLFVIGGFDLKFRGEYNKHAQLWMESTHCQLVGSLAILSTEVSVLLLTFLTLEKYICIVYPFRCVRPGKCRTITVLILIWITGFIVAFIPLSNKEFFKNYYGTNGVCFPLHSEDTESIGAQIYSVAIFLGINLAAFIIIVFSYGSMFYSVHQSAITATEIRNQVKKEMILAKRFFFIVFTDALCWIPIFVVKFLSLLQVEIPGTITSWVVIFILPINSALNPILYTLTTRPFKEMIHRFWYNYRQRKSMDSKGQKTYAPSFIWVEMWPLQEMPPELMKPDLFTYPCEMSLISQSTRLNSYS
Protocol: To determine the binding characteristics of wild type and mutant peptides, HEK293T cells expressing LGR7 or LGR8 were grown to 90% confluence, collected by centrifugation at 3000×g for 2 min, and washed two times in 2 ml of ice-cold binding buffer. Cells were resuspended in ice-cold binding buffer, and aliquots of cell suspension were incubated with increasing doses of purified recombinant peptides in the presence of 0.025 pmol of ^125I-labeled RLN2 tracer (Phoenix Pharmaceuticals, Burlingame, Calif.) at room temperature for 2 h. After washing three times in an ice-cold binding buffer, radioactivity bound to the cells was measured using a γ-counter (EG&G Wallace, Gaithersburg, Md.). Total binding was determined in the absence, and nonspecific binding in the presence, of 25 nmol of unlabeled RLN2. In regular assays, total binding was ˜30,000 cpm, and nonspecific binding amounted to less than 20% of the total binding. Data points were collected in triplicate, and similar results were obtained in at least two independent assays.
(§1) Receptor-activation and receptor binding activity curves generated in nonlinear regression analyses (Prism; GraphPad Software, San Diego, Calif.) were evaluated relative to the samples without hormone treatment. In all cases data are reported as the mean±S.E. of assays in triplicate or quadruplicate. Statistically significant responses (p<0.05) were determined for each stimulated response to the average nonspecific response from control samples using analysis of variance and Student's t test.

LGR7 [2] = target: T1, LGR7; assay: Receptor-activation analysis: cAMP production in LGR7-expressing HEK293T cells; type: cell-based; conditions: for LGR7-activation activity (result in words): LGR7-expressing HEK293T cells; for pEC50 on the activation of LGR7: HEK293T cells stably expressing LGR7, mean ± S.E., ND = pEC50 not measurable
Protocol: (§2) The bioactivity of relaxin family peptides was determined based on the stimulation of adenylate cyclase activity in HEK293T cells stably expressing recombinant LGR7 or LGR8. Stable LGR7- or LGR8-expressing cells were maintained in Dulbecco's modified Eagle's medium/F-12 media supplemented with […] Zeocin (Invitrogen). After seeding at a density of 2×10^5 cells per well in 500 μl of Dulbecco's modified Eagle's medium/F-12 medium containing 0.1% bovine serum albumin in 48-well plates, cells were preincubated at 37° C. for 30 min in the presence of 0.25 mM 3-isobutyl-1-methylxanthine before treatment with increasing concentrations of peptides (from 0 to 100 nM) in quadruplicate. Twelve hours after treatment, the culture was reacted with acetic anhydride/triethylamine, and total cAMP content in cell lysates was measured using a specific cAMP radioimmunoassay. A nontagged human RLN2 peptide was used as a standard to verify the bioactivity of tagged RLN2 peptides.
as §1

LGR8 = target: T2, LGR8 (Homo sapiens, UniProt Q8WXD0); assay: Receptor-activation analysis: cAMP production in LGR8-expressing HEK293T cells; type: cell-based; conditions: LGR8-expressing HEK293T cells
T2 construct: HEK293T cells stably expressing recombinant LGR7 or LGR8; expressed in transfected cells
Protocol: as §2, §1

T2 sequence (Q8WXD0 whole entry): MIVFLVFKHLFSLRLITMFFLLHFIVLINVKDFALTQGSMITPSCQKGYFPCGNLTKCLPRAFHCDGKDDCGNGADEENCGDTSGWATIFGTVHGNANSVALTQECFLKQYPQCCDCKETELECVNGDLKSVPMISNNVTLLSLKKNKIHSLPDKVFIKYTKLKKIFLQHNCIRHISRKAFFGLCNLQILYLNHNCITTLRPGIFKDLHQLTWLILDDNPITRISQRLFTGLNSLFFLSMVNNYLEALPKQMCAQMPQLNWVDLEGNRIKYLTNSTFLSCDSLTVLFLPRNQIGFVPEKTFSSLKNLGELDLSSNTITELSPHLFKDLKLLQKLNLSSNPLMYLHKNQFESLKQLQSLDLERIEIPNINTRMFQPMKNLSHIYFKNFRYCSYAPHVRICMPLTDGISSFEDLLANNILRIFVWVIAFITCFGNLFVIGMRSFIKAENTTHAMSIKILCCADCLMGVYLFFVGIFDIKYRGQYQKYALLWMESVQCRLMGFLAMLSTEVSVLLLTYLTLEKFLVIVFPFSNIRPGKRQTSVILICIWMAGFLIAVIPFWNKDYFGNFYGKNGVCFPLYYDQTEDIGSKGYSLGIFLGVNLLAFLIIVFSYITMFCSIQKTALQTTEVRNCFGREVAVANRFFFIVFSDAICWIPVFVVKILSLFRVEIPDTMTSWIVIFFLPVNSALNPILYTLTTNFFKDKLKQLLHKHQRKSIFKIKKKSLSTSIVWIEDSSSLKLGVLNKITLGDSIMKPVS

Substance | LGR7-binding activity (result in words) (LGR7 [1]) | LGR7-activation activity (result in words) (LGR7 [2]) | LGR8-activation activity (result in words) (LGR8) | LGR8-activation activity (result in words) (LGR8; listed as RLN2 KA17A) | LGR8-activation activity (result in words) (LGR8; listed as RLN2 TA16A) | pEC50 on the activation of LGR7 (LGR7 [2])
RLN2 C-8: Myc- and His6-tagged RLN2 from construct with a truncated C-domain of 8 amino acids (chain 1 SWMEEVIKLCGRELVRAQIAICGMSTWSHHHHHH; chain 2 QLYSALANKCCHVGCTKRSLARFC; ends and bridges not checked; also: Myc tag, not in given chain) | high affinity | – | – | – | – | –
RLN2 K^A17A: RLN2 mutant with alanine substitution at LysA17 of the A chain (chain 1 SWMEEVIKLCGRELVRAQIAICGMSTWSHHHHHH; chain 2 QLYSALANKCCHVGCTARSLARFC; not fully specified; ends and bridges not checked) | – | high potencies on the activation of both LGR7 and LGR8 | significantly enhanced LGR8-activation activity | high potencies on the activation of both LGR7 and LGR8 | – | –
RLN2 R^A22A: RLN2 mutant with alanine substitution at the ArgA22 position (chain 1 SWMEEVIKLCGRELVRAQIAICGMSTWSHHHHHH; chain 2 QLYSALANKCCHVGCTKRSLAAFC; not fully specified; ends and bridges not checked) | affinities similar to that of wild type peptides | minimal effect | minimal effect | – | – | –
RLN2 R^B12A: RLN2 mutant with alanine substitution of ArgB12 in the B chain RXXXRXXI motif (chain 1 SWMEEVIKLCGAELVRAQIAICGMSTWSHHHHHH; chain 2 QLYSALANKCCHVGCTKRSLARFC; not fully specified; ends and bridges not checked) | – | abolished the LGR7- and LGR8-activation activities | abolished the LGR7- and LGR8-activation activities | – | – | –
RLN2 R^B16A: RLN2 mutant with alanine substitution of ArgB16 in the B chain RXXXRXXI motif (chain 1 SWMEEVIKLCGRELVAAQIAICGMSTWSHHHHHH; chain 2 QLYSALANKCCHVGCTKRSLARFC; not fully specified; ends and bridges not checked) | – | abolished the LGR7- and LGR8-activation activities | abolished the LGR7- and LGR8-activation activities | – | – | –
RLN2 T^A16A: RLN2 mutant with alanine substitution at ThrA16 of the A chain (chain 1 SWMEEVIKLCGRELVRAQIAICGMSTWSHHHHHH; chain 2 QLYSALANKCCHVGCAKRSLARFC; not fully specified; ends and bridges not checked) | – | high potencies on the activation of both LGR7 and LGR8 | significantly enhanced LGR8-activation activity | – | high potencies on the activation of both LGR7 and LGR8 | –
WT RLN2 (His2): recombinant wild type RLN2 with N-terminal Myc tag and His6 tag at the N or C terminus of the B chain (position 2) (chain 1 SWMEEVIKLCGRELVRAQIAICGMSTWS; chain 2 QLYSALANKCCHVGCTKRSLARFC; not fully specified; ends and bridges not checked; also: N-terminal Myc tag) | – | – | – | – | – | 8.77 ± 0.10
WT RLN3: recombinant wild type human relaxin 3 [reference compound] | – | selectively activated | – | – | – | 7.73 ± 0.07
